The record followed here is PMC5199193, “Structure of the transporter associated with antigen processing trapped by herpes simplex virus” (eLife, 2016).

In this experiment the target is T1, transporter associated with antigen processing (TAP), heterodimer of TAP1 and TAP2 (human, UniProt Q03518 1-748; Q03519 1-686).
T1 construct: TAP1, human; TMD0 is in the construct (no density seen for it); TAP2, human; model holds residues 130-681; also called human TAP; source: lysed cells incubated with purified ICP47, solubilised in DDM, purified (IgG Sepharose, Superose 6); not shown: Protein A, C-terminal, cleaved
T1 sequence 1: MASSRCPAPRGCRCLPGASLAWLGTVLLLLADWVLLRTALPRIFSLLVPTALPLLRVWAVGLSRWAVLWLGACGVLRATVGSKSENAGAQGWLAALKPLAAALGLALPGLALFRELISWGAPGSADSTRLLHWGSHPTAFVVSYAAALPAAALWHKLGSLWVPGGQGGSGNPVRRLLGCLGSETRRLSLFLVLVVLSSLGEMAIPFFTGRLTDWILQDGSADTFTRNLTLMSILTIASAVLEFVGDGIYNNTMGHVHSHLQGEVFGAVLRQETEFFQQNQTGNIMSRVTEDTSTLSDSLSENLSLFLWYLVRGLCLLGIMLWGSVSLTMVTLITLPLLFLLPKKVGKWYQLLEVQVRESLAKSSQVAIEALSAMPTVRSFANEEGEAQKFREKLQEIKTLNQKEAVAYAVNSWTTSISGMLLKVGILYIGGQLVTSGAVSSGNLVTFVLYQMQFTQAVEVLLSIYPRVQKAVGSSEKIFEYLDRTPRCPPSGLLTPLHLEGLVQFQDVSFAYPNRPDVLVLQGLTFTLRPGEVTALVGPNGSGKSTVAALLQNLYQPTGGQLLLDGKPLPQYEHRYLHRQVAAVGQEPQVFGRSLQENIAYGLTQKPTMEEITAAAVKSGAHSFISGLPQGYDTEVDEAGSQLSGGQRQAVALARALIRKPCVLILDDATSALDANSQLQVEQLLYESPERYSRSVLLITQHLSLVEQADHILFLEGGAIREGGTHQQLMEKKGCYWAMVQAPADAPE
T1 sequence 2: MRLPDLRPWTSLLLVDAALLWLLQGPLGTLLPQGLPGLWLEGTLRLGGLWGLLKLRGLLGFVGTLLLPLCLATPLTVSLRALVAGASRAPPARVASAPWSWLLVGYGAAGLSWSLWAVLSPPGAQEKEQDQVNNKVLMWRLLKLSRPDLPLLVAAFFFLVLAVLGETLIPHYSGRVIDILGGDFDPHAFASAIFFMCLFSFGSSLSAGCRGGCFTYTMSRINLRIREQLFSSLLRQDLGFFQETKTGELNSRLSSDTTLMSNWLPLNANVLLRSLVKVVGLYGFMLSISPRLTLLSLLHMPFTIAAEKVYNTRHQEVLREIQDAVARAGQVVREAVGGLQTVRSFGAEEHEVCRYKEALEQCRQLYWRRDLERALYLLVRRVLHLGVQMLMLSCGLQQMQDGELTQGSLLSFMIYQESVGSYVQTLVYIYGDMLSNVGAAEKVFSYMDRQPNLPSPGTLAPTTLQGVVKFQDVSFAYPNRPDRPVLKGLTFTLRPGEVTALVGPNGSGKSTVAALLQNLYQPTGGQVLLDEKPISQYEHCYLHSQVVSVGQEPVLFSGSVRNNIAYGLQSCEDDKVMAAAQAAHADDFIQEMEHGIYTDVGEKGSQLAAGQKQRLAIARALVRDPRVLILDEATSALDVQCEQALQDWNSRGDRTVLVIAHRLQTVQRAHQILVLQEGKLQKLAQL
The experiment in a line: cryo-EM structure; purified TAP/ICP47 complex (2 mg/ml) in 20 mM Hepes pH 7.4, 150 mM NaCl, 2 mM TCEP, 1 mM DDM, 1 mM C12E8; complex formed by incubating lysed Pichia cells co-expressing TAP1 and TAP2 with purified ICP47; 4.0 Å. Particulars: both partners purified.

B1: ICP47 of herpes simplex virus 1 (natural protein)
chain: MSWALEMADTFLDTMRVGPRTYADVRDEINKRGREDREAARTAVHDPERPLLRSPGLLPEIAPNASLGVAHRRTGGTVTDSPRNPVTR
notes: ICP47, HSV-1; the N-terminal 55 residues are ordered and the C-terminal 33 residues have no density (88 residues together); also called HSV-1 ICP47; source: E. coli, purified via the GST tag
B1: the binding result is on record as “binds”.
